Test results: the supplement of paper PMC5998384

Tests used:
[1] = test system: HeLa Kyoto; assay: thermal stability score vs G1/S (z-score of summed log2 fold changes over temperatures); higher = more thermally stable than in G1/S
[2] = test system: HeLa Kyoto; assay: melting temperature (median over replicates), in situ; higher = more thermally stable
[3] = test system: HeLa Kyoto; assay: solubility in G1/S (NP-40 vs SDS abundance) (log2 ratio); higher = more soluble; details: cell cycle stage: G1/S
[4] = test system: HeLa Kyoto; assay: solubility change mitosis vs G1/S (difference of NP-40 vs SDS log2 ratios) (log2 ratio difference); higher = more soluble in mitosis
[5] = cell cycle stage: early G1 (4.5 h after nocodazole release)
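For melting temperature (median over replicates), in situ in this document: HeLa Kyoto cells synchronized by double thymidine or nocodazole block, proteins quantified by TMT10plex mass spectrometry, three independent biological replicates.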
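For solubility change mitosis vs G1/S (difference of NP-40 vs SDS log2 ratios) in this document: synchronized HeLa Kyoto cells (double thymidine block for G1/S, nocodazole release for mitosis), protein amounts in NP-40 versus SDS lysates quantified by mass spectrometry, three biological replicates.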
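For solubility in G1/S (NP-40 vs SDS abundance) in this document: HeLa Kyoto cells arrested at G1/S by double thymidine block, proteins quantified by TMT10plex mass spectrometry in mild NP-40 versus SDS extracts, three biological replicates.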
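For thermal stability score vs G1/S (z-score of summed log2 fold changes over temperatures) in this document: synchronized HeLa Kyoto cells, proteins quantified by TMT10plex mass spectrometry, three biological replicates, mitosis taken 0.5 h after nocodazole release, G1/S directly after double thymidine block.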

Sequence of ANKH (chain, as listed by the source): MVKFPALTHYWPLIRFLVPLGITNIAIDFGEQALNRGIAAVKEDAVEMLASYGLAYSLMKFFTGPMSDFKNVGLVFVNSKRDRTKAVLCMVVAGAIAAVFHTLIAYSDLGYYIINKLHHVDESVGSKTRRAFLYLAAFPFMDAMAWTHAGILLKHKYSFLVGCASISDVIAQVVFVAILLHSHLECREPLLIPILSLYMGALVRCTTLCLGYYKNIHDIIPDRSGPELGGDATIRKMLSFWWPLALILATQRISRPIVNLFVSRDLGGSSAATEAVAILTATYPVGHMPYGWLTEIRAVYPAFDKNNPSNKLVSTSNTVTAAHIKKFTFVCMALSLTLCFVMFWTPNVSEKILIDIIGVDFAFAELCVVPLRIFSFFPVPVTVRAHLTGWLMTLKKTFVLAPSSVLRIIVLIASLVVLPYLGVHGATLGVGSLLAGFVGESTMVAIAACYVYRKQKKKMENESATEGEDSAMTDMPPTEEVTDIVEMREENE

Row | Substance | thermal stability score [1, 5] | thermal stability score ([1]; cell cycle stage: mitosis) | melting temperature ([2]; cell cycle stage: G1/S) | melting temperature ([2]; cell cycle stage: mitosis) | solubility in G1/S (log2) [3] | solubility change mitosis (log2) [4]
1 | MTKKRKRQHDFQKVKLKVGKKKPKLQNATPTNFKTKTIHLPEQLKEDGTLPTNNRKLNIKDLLSQMHHYNAGVKQSALLGLKDLLSQYPFIIDAHLSNILSEVTAVFTDKDANVRLAAVQLLQFLAPKIRAEQISPFFPLVSAHLSSAMTHITEGIQEDSLKVLDILLEQYPALITGRSSILLKNFVELISHQQLSKGLINRDRSQSWILSVNPNRRLTSQQWRLKVLVRLSKFLQALADGSSRLRESEGLQEQKENPHATSNSIFINWKEHANDQQHIQVYENGGSQPNVSSQFRLRYLVGGLSGVDEGLSSTENLKGFIEIIIPLLIECWVEAVPPQLATPVGNGIEREPLQVMQQVLNIISLLWKLSKQQDETHKLESWLRKNYLIDFKHHFMSRFPYVLKEITKHKRKEPNKSIKHCTVLSNNIDHLLLNLTLSDIMVSLANASTLQKDCSWIEMIRKFVTETLEDGSRLNSKQLNRLLGVSWRLMQIQPNREDTETLIKAVYTLYQQRGLILPVRTLLLKFFSKIYQTEELRSCRFRYRSKVLSRWLAGLPLQLAHLGSRNPELSTQLIDIIHTAAARANKELLKSLQATALRIYDPQEGAVVVLPADSQQRLVQLVYFLPSLPADLLSRLSRCCIMGRLSSSLAAMLIGILHMRSSFSGWKYSAKDWLMSDVDYFSFLFSTLTGFSKEELTWLQSLRGVPHVIQTQLSPVLLYLTDLDQFLHHWDVTEAVFHSLLVIPARSQNFDILQSAISKHLVGLTVIPDSTAGCVFGVICKLLDHTCVVSETLLPFLASCCYSLLYFLLTIEKGEAEHLRKRDKLWGVCVSILALLPRVLRLMLQSLRVNRVGPEELPVVGQLLRLLLQHAPLRTHMLTNAILVQQIIKNITTLKSGSVQEQWLTDLHYCFNVYITGHPQGPSALATVY [TEX10] | -1.74 | -4.37 | 54.3 °C | 52 °C | -1.92 | 0.921
2 | MDC1 | -1.53 | 1.05 | 51.2 °C | 52.1 °C | -0.295 | 0.434
3 | CAD | -0.499 | 0.0146 | 50.6 °C | 50 °C | -0.137 | -0.146
4 | MGSAGLSRLHGLFAVYKPPGLKWKHLRDTVELQLLKGLNARKPPAPKQRVRFLLGPMEGSEEKELTLTATSVPSFINHPLVCGPAFAHLKVGVGHRLDAQASGVLVLGVGHGCRLLTDMYNAHLTKDYTVRGLLGKATDDFREDGRLVEKTTYDHVTREKLDRILAVIQGSHQKALVMYSNLDLKTQEAYEMAVRGLIRPMNKSPMLITGIRCLYFAPPEFLLEVQCMHETQKELRKLVHEIGLELKTTAVCTQVRRTRDGFFTLDSALLRTQWDLTNIQDAIRAATPQVAAELEKSLSPGLDTKQLPSPGWSWDSQGPSSTLGLERGAGQ [TRUB2] | -0.241 | 0.385 | 50.2 °C | 50 °C | -0.103 | 0.16
5 | LAMA1 | 5.02 | 10 | 51.7 °C | 52.9 °C | -0.219 | 0.051
6 | MSVNSEKSSSSERPEPQQKAPLVPPPPPPPPPPPPPLPDPTPPEPEEEILGSDDEEQEDPADYCKGGYHPVKIGDLFNGRYHVIRKLGWGHFSTVWLCWDMQGKRFVAMKVVKSAQHYTETALDEIKLLKCVRESDPSDPNKDMVVQLIDDFKISGMNGIHVCMVFEVLGHHLLKWIIKSNYQGLPVRCVKSIIRQVLQGLDYLHSKCKIIHTDIKPENILMCVDDAYVRRMAAEATEWQKAGAPPPSGSAVSTAPQQKPIGKISKNKKKKLKKKQKRQAELLEKRLQEIEELEREAERKIIEENITSAAPSNDQDGEYCPEVKLKTTGLEEAAEAETAKDNGEAEDQEEKEDAEKENIEKDEDDVDQELANIDPTWIESPKTNGHIENGPFSLEQQLDDEDDDEEDCPNPEEYNLDEPNAESDYTYSSSYEQFNGELPNGRHKIPESQFPEFSTSLFSGSLEPVACGSVLSEGSPLTEQEESSPSHDRSRTVSASSTGDLPKAKTRAADLLVNPLDPRNADKIRVKIADLGNACWVHKHFTEDIQTRQYRSIEVLIGAGYSTPADIWSTACMAFELATGDYLFEPHSGEDYSRDEDHIAHIIELLGSIPRHFALSGKYSREFFNRRGELRHITKLKPWSLFDVLVEKYGWPHEDAAQFTDFLIPMLEMVPEKRASAGECLRHPWLNS [SRPK2] | -3.22 | -4.46 | 53.3 °C | 52.2 °C | -0.405 | 0.0499
7 | MRHLPYFCRGQVVRGFGRGSKQLGIPTANFPEQVVDNLPADISTGIYYGWASVGSGDVHKMVVSIGWNPYYKNTKKSMETHIMHTFKEDFYGEILNVAIVGYLRPEKNFDSLESLISAIQGDIEEAKKRLELPEHLKIKEDNFFQVSKSKIMNGH [RFK] | 0.0986 | -0.44 | 52.7 °C | 54.1 °C | 0.518 | -0.114
8 | ALDH3A2 | -0.835 | -0.622 | 51 °C | 50.7 °C | -0.186 | -0.0531
9 | CIT | 0.287 | 0.352 | 50.1 °C | 50.4 °C | -0.0433 | -0.113
10 | MRERIWAPPLLLLLPLLLPPPLWGGPPDSPRRELELEPGPLQPFDLLYASGAAAYYSGDYERAVRDLEAALRSHRRLREIRTRCARHCAARHPLPPPPPGEGPGAELPLFRSLLGRARCYRSCETQRLGGPASRHRVSEDVRSDFQRRVPYNYLQRAYIKLNQLEKAVEAAHTFFVANPEHMEMQQNIENYRATAGVEALQLVDREAKPHMESYNAGVKHYEADDFEMAIRHFEQALREYFVEDTECRTLCEGPQRFEEYEYLGYKAGLYEAIADHYMQVLVCQHECVRELATRPGRLSPIENFLPLHYDYLQFAYYRVGEYVKALECAKAYLLCHPDDEDVLDNVDYYESLLDDSIDPASIEAREDLTMFVKRHKLESELIKSAAEGLGFSYTEPNYWIRYGGRQDENRVPSGVNVEGAEVHGFSMGKKLSPKIDRDLREGGPLLYENITFVYNSEQLNGTQRVLLDNVLSEEQCRELHSVASGIMLVGDGYRGKTSPHTPNEKFEGATVLKALKSGYEGRVPLKSARLFYDISEKARRIVESYFMLNSTLYFSYTHMVCRTALSGQQDRRNDLSHPIHADNCLLDPEANECWKEPPAYTFRDYSALLYMNDDFEGGEFIFTEMDAKTVTASIKPKCGRMISFSSGGENPHGVKAVTKGKRCAVALWFTLDPLYRELERIQADEVIAILDQEQQGKHELNINPKDEL [P3H2] | 4.77 | 5.82 | 53.7 °C | 53.9 °C | -0.176 | -0.0732
11 | MPHSYPALSAEQKKELSDIALRIVAPGKGILAADESVGSMAKRLSQIGVENTEENRRLYRQVLFSADDRVKKCIGGVIFFHETLYQKDDNGVPFVRTIQDKGIVVGIKVDKGVVPLAGTDGETTTQGLDGLSERCAQYKKDGADFAKWRCVLKISERTPSALAILENANVLARYASICQQNGIVPIVEPEILPDGDHDLKRCQYVTEKVLAAVYKALSDHHVYLEGTLLKPNMVTPGHACPIKYTPEEIAMATVTALRRTVPPAVPGVTFLSGGQSEEEASFNLNAINRCPLPRPWALTFSYGRALQASALNAWRGQRDNAGAATEEFIKRAEVNGLAAQGKYEGSGEDGGAAAQSLYIANHAY [ALDOC] | -1.31 | -2.38 | 56.9 °C | 57 °C | 0.202 | -0.0816
12 | MKGTRAIGSVPERSPAGVDLSLTGLPPPVSRRPGSAATTKPIVRSVSVVTGSEQKRKVLEATGPGGSQAINNLRRSNSTTQVSQPRSGSPRPTEPTDFLMLFEGSPSGKKRPASLSTAPSEKGATWNVLDDQPRGFTLPSNARSSSALDSPAGPRRKECTVALAPNFTANNRSNKGAVGNCVTTMVHNRYTPSERAPPLKSSNQTAPSLNNIIKAATCEGSESSGFGKLPKNVSSATHSARNNTGGSTGLPRRKEVTEEEAERFIHQVNQATVTIQRWYRHQVQRRGAGAARLEHLLQAKREEQRQRSGEGTLLDLHQQKEAARRKAREEKARQARRAAIQELQQKRALRAQKASTAERGPPENPRETRVPGMRQPAQELSPTPGGTAHQALKANNTGGGLPAAGPGDRCLPTSDSSPEPQQPPEDRTQDVLAQDAAGDNLEMMAPSRGSAKSRGPLEELLHTLQLLEKEPDVLPRPRTHHRGRYAWASEVTTEDDASSLTADNLEKFGKLSAFPEPPEDGTLLSEAKLQSIMSFLDEMEKSGQDQLDSQQEGWVPEAGPGPLELGSEVSTSVMRLKLEVEEKKQAMLLLQRALAQQRDLTARRVKETEKALSRQLQRQREHYEATIQRHLAFIDQLIEDKKVLSEKCEAVVAELKQEDQRCTERVAQAQAQHELEIKKLKELMSATEKARREKWISEKTKKIKEVTVRGLEPEIQKLIARHKQEVRRLKSLHEAELLQSDERASQRCLRQAEELREQLEREKEALGQQERERARQRFQQHLEQEQWALQQQRQRLYSEVAEERERLGQQAARQRAELEELRQQLEESSSALTRALRAEFEKGREEQERRHQMELNTLKQQLELERQAWEAGRTRKEEAWLLNREQELREEIRKGRDKEIELVIHRLEADMALAKEESEKAAESRIKRLRDKYEAELSELEQSERKLQERCSELKGQLGEAEGENLRLQGLVRQKERALEDAQAVNEQLSSERSNLAQVIRQEFEDRLAASEEETRQAKAELATLQARQQLELEEVHRRVKTALARKEEAVSSLRTQHEAAVKRADHLEELLEQHRRPTPSTK [CEP131] | -0.343 | 1.44 | 50.5 °C | 49.2 °C | 0.0853 | 0.357
13 | ANKH | -1.21 | -1.75 | 54.9 °C | 58.2 °C | -0.292 | 0.155
14 | MCGSALAFFTAAFVCLQNDRRGPASFLWAAWVFSLVLGLGQGEDNRCASSNAASCARCLALGPECGWCVQEDFISGGSRSERCDIVSNLISKGCSVDSIEYPSVHVIIPTENEINTQVTPGEVSIQLRPGAEANFMLKVHPLKKYPVDLYYLVDVSASMHNNIEKLNSVGNDLSRKMAFFSRDFRLGFGSYVDKTVSPYISIHPERIHNQCSDYNLDCMPPHGYIHVLSLTENITEFEKAVHRQKISGNIDTPEGGFDAMLQAAVCESHIGWRKEAKRLLLVMTDQTSHLALDSKLAGIVVPNDGNCHLKNNVYVKSTTMEHPSLGQLSEKLIDNNINVIFAVQGKQFHWYKDLLPLLPGTIAGEIESKAANLNNLVVEAYQKLISEVKVQVENQVQGIYFNITAICPDGSRKPGMEGCRNVTSNDEVLFNVTVTMKKCDVTGGKNYAIIKPIGFNETAKIHIHRNCSCQCEDNRGPKGKCVDETFLDSKCFQCDENKCHFDEDQFSSESCKSHKDQPVCSGRGVCVCGKCSCHKIKLGKVYGKYCEKDDFSCPYHHGNLCAGHGECEAGRCQCFSGWEGDRCQCPSAAAQHCVNSKGQVCSGRGTCVCGRCECTDPRSIGRFCEHCPTCYTACKENWNCMQCLHPHNLSQAILDQCKTSCALMEQQHYVDQTSECFSSPSYLRIFFIIFIVTFLIGLLKVLIIRQVILQWNSNKIKSSSDYRVSASKKDKLILQSVCTRAVTYRREKPEEIKMDISKLNAHETFRCNF [ITGB8] | -0.935 | -1.88 | 53.9 °C | 53.8 °C | -0.0596 | -0.0048
